{"source": "paper PMC5998024", "about": "“Hydrophobic pore gates regulate ion permeation in polycystic kidney disease 2 and 2L1 channels” (Nature Communications, 2018)", "proteins": {"B1": {"name": "maltose binding protein fused human PKD2 protein, residues 53-792, harboring the F604P GOF mutation (domain or fragment, UniProt Q13563-1 53-792, looked up)", "chain": "EIEMQRIRQAAARDPPAGAAASPSPPLSSCSRQAWSRDNPGFEAEEEEEEVEGEEGGMVVEMDVEWRPGSRRSAASSAVSSVGARSRGLGGYHGAGHPSGRRRRREDQGPPCPSPVGGGDPLHRHLPLEGQPPRVAWAERLVRGLRGLWGTRLMEESSTNREKYLKSVLRELVTYLLFLIVLCILTYGMMSSNVYYYTRMMSQLFLDTPVSKTEKTNFKTLSSMEDFWKFTEGSLLDGLYWKMQPSNQTEADNRSFIFYENLLLGVPRIRQLRVRNGSCSIPQDLRDEIKECYDVYSVSSEDRAPFGPRNGTAWIYTSEKDLNGSSHWGIIATYSGAGYYLDLSRTREETAAQVASLKKNVWLDRGTRATFIDFSVYNANINLFCVVRLLVEFPATGGVIPSWQFQPLKLIRYVTTFDFFLAACEIIFCFFIFYYVVEEILEIRIHKLHYFRSFWNCLDVVIVVLSVVAIGINIYRTSNVEVLLQFLEDQNTFPNFEHLAYWQIQFNNIAAVTVFFVWIKLFKFINFNRTMSQLSTTMSRCAKDLFGFAIMPFIIFLAYAQLAYLVFGTQVDDFSTFQECIFTQFRIILGDINFAEIEEANRVLGPIYFTTFVFFMFFILLNMFLAIINDTYSEVKSDLAQQKAEMELSDLIRKGYHKALVKLKLKKNTVDDISESLRQGGGKLNFDELRQDLKGKGHTDAEIEAIFTKYDQDGDQELTEHEHQQMRDDLEKEREDLDLD", "notes": "human PKD2 (polycystin-2, TRPP2), residues 53-792 (E53-D792), with the gain-of-function mutation F604P; cytoplasmic N- and C-termini not seen in the map; also called PKD2 F604P; F604P mutant; source: HEK293S GnTI- cells, transduced with baculovirus, purified (amylose resin, amphipols A8-35, Superdex 200)"}}, "target": "the molecule itself", "assay": "cryo-EM structure; single-particle cryo-EM of purified PKD2 F604P (53-792) in amphipols A8-35; C4 symmetry imposed, reconstruction without imposed symmetry also showed C4 symmetry; 3.5 Å", "data": [{"protein": "B1", "values": [{"measurement": "stoichiometry N", "value": 4}]}]}
